Experimental data: the RNAGym collection of RNA variant scans (doi:10.7554/elife.90254)

B1: LINE1-mini (parent)
chain: GGCAGAGCUCAACACAGCGUGGCAAAGUGGCUGUGGCUAGACUGCC

Variants of: B1
Experiment: self-cleavage, relative activity (ratio to wild type); higher = more cleavage; in vitro, sequencing; the parent is a self-cleaving ribozyme

Point of comparison: GGCAGAGCUCAACACAGCGUGACAAAGUGGCCGUGGCUAGACUGCC, self-cleavage 1.4. Against it:
- GGCAGAGCUCAACACAGCGUGACAAAGUGGCUGUGGCUAGCCUGCC — lower, 0.09
- GGCAGAGCUCAACACAGCGUGACAAAGUGGCUGUGGCUAGGCUGCC — lower, 0.31
- GGCAGAGCUCAACACAGCGUGACAAAGUGGCUGUGGCUAGUCUGCC — lower, 0.66
- GGCAGAGCUCAACACAGCGUGACAAAGUGGCUGUGGCUAGAUUGCC — lower, 0.7
- GGCAGAGCUCAACACAGCGUGACAAAGUGGCUGUGGCUAGAGUGCC — lower, 0.03
- GGCAGAGCUCAACACAGCGUGACAAAGUGGCUGUGGCUAGAAUGCC — lower, 0.35
- GGCAGAGCUCAACACAGCGUGAAAAAGUGGCUGUGGCUAGACUGCC — lower, 0.42
- GGCAGAGCUCAACACAGCGUGAGAAAGUGGCUGUGGCUAGACUGCC — lower, 0.47
- GGCAGAGCUCAACACAGCGUGAUAAAGUGGCUGUGGCUAGACUGCC — lower, 1.14
- GGCAGAGCUCAACACAGCGUUGCAAAGUGGCUGUGGCCAGACUGCC — lower, 0.9
- GGCAGAGCUCAACACAGCGUUGCAAAGUGGCUGUGGCAAGACUGCC — lower, 0.42
- GGCAGAGCUCAACACAGCGUUGCAAAGUGGCUGUGGCGAGACUGCC — lower, 0.04
- GGCAGAGCUCAACACAGCGUGACAAUGUGGCUGUGGCUAGACUGCC — lower, 0.76
- GGCAGAGCUCAACACAGCGUGACAAGGUGGCUGUGGCUAGACUGCC — lower, 1.31
- GGCAGAGCUCAACACAGCGUGACAACGUGGCUGUGGCUAGACUGCC — lower, 0.79
- GGCAGAGCUCAACACAGCGUGACAAAGUGGCUGUGGCUAGACGGCC — lower, 0
- GGCAGAGCUCAACACAGCGUGACAAAGUGGCUGUGGCUAGACAGCC — lower, 0.06
- GGCAGAGCUCAACACAGCGUGACAAAGUGGCUGUGGCUAGACCGCC — lower, 0.07
- GGCAGAGCUCAACACAGCGUGACAAAGUGGCAGUGGCUAGACUGCC — lower, 0.07
- GGCAGAGCUCAACACAGCGUGACAAAGUGGCGGUGGCUAGACUGCC — lower, 0.14
- GGCAGAGCUCAACACAGCGUUGCAAAGUGGCUGGGGCUAGACUGCC — lower, 0.34
- GGCAGAGCUCAACACAGCGUUGCAAAGUGGCUGAGGCUAGACUGCC — lower, 0.12
- GGCAGAGCUCAACACAGCGUUGCAAAGUGGCUGCGGCUAGACUGCC — lower, 0.27
- GGCAGAGCUCAACACAGCGUGACAAAAUGGCUGUGGCUAGACUGCC — lower, 0.51
- GGCAGAGCUCAACACAGCGUGACAAACUGGCUGUGGCUAGACUGCC — lower, 0.9
- GGCAGAGCUCAACACAGCGUGACAAAUUGGCUGUGGCUAGACUGCC — lower, 0.75
- GGCAGAGCUCAACACAGCGUGACAGAGUGGCUGUGGCUAGACUGCC — lower, 1.23
- GGCAGAGCUCAACACAGCGUGACAUAGUGGCUGUGGCUAGACUGCC — lower, 1.38
- GGCAGAGCUCAACACAGCGUGACACAGUGGCUGUGGCUAGACUGCC — lower, 0.8
- GGCAGAGCUCAACACAGCGUGACAAAGUGGCUGUGGCUAGACUGCU — lower, 0.84
- GGCAGAGCUCAACACAGCGUGACAAAGUGGCUGUGGCUAGACUGCG — lower, 1.22
- GGCAGAGCUCAACACAGCGUGACAAAGUGGCUGUGGCUAGACUGCA — lower, 1.03
- GGCAGAGCUCAACACAGCGUGACCAAGUGGCUGUGGCUAGACUGCC — lower, 0.48
- GGCAGAGCUCAACACAGCGUGACGAAGUGGCUGUGGCUAGACUGCC — higher, 1.53
- GGCAGAGCUCAACACAGCGUGACUAAGUGGCUGUGGCUAGACUGCC — lower, 0.75
- GGCAGAGCUCAACACAGCGUGACAAAGUGGCUGUGGCUACACUGCC — lower, 0.09
- GGCAGAGCUCAACACAGCGUGACAAAGUGGCUGUGGCUAAACUGCC — lower, 0.08
- GGCAGAGCUCAACACAGCGUGACAAAGUGGCUGUGGCUAUACUGCC — lower, 0.12
- GGCAGAGCUCAACACAGCGUUGCAAAGUGGCUGUGGCUAGACCGCC — lower, 0.2
- GGCAGAGCUCAACACAGCGUUGCAAAGUGGCUGUGGCUAGACGGCC — lower, 0.07
- GGCAGAGCUCAACACAGCGUUGCAAAGUGGCUGUGGCUAGACAGCC — lower, 0.08
- GGCAGAGCUCAACACAGCGUGACAAAGUCGCUGUGGCUAGACUGCC — lower, 0.21
- GGCAGAGCUCAACACAGCGUGACAAAGUAGCUGUGGCUAGACUGCC — lower, 0.27
- GGCAGAGCUCAACACAGCGUGACAAAGUUGCUGUGGCUAGACUGCC — lower, 0.65
- GGCAGAGCUCAACACAGCGUGCCAAUGUGGCUGUGGCUAGACUGCC — lower, 0.82
- GGCAGAGCUCAACACAGCGUGCCAACGUGGCUGUGGCUAGACUGCC — higher, 2.46
- GGCAGAGCUCAACACAGCGUGCCAAGGUGGCUGUGGCUAGACUGCC — lower, 0.87
- GGCAGAGCUCAACACAGCGUUGCAAAGUGGCAGUGGCUAGACUGCC — lower, 0.12
- GGCAGAGCUCAACACAGCGUUGCAAAGUGGCCGUGGCUAGACUGCC — lower, 0.68
- GGCAGAGCUCAACACAGCGUUGCAAAGUGGCGGUGGCUAGACUGCC — lower, 0.26
- GGCAGAGCUCAACACAGCGUUGCAAAGAGGCUGUGGCUAGACUGCC — lower, 0.51
- GGCAGAGCUCAACACAGCGUUGCAAAGCGGCUGUGGCUAGACUGCC — lower, 0.92
- GGCAGAGCUCAACACAGCGUUGCAAAGGGGCUGUGGCUAGACUGCC — lower, 0.52
- GGCAGAGCUCAACACAGCGUGCCAAAGUGGCUGUGGCUAGCCUGCC — lower, 0.05
- GGCAGAGCUCAACACAGCGUGCCAAAGUGGCUGUGGCUAGGCUGCC — lower, 0.23
